Common to all, as to assay: fluorescence polarisation; 37 °C, after the 25 °C reading ramped over 7 min to 37 °C and 2 min incubation; unlabeled Rb^P against 1.5 nM TMR-E2F1^TD or 7.5 nM TMR-E7^LxCxE; 25 mM Tris pH 8.0, 200 mM NaCl, 1 mM DTT, 0.1% Tween-20; apparent Kd
Conditions in all cases: both partners purified
(In general: In fluorescence polarisation assays a small probe gives low polarisation when free and higher when bound to something large.)

For assay [1], the target named is T1, Rb^P T687I (human, UniProt P06400 380-788, T687I).
T1 construct: also called variant 59
T1 sequence (looked up): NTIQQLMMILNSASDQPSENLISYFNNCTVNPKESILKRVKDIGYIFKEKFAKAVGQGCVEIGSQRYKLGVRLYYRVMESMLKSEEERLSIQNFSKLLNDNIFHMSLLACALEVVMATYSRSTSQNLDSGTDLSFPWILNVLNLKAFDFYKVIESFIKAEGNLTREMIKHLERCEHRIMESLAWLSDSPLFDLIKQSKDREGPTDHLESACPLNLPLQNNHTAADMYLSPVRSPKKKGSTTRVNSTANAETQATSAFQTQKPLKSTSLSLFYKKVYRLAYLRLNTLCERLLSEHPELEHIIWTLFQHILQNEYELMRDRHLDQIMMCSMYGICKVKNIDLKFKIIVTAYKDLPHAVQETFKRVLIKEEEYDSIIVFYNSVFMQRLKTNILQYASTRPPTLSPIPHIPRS

In assay [2] the target is T2, Rb^P S588F (human, UniProt P06400 380-788, S588F).
T2 construct: also called variant 34
T2 sequence (looked up): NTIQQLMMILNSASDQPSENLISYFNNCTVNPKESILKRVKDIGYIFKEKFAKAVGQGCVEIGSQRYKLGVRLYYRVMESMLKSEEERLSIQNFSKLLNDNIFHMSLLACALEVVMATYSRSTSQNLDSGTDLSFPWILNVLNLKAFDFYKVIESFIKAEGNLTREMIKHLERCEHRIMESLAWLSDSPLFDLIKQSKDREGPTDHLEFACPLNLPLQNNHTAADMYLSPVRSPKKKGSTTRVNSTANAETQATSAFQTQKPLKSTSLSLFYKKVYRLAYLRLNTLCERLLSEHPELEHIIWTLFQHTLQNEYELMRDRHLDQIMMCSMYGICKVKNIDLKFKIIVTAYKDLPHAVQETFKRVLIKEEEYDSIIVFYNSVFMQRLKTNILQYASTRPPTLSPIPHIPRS

Assay [3] has as its target T3, Rb^P M546I (human, UniProt P06400 380-788, M546I).
T3 construct: also called variant 25
T3 sequence (looked up): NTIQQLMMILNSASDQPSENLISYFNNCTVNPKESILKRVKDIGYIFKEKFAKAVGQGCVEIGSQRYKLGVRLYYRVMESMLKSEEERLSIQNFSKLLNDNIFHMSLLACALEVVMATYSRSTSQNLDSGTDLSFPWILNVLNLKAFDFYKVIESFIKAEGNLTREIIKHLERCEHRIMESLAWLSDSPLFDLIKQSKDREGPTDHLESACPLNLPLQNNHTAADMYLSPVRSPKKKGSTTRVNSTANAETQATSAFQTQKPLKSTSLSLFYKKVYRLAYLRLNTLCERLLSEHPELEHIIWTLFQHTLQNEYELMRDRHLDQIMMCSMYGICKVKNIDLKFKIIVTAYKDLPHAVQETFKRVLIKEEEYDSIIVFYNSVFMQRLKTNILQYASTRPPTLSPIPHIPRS

In assay [4] the target is T4, Rb^P K462T (human, UniProt P06400 380-788, K462T).
T4 construct: also called variant 9
T4 sequence (looked up): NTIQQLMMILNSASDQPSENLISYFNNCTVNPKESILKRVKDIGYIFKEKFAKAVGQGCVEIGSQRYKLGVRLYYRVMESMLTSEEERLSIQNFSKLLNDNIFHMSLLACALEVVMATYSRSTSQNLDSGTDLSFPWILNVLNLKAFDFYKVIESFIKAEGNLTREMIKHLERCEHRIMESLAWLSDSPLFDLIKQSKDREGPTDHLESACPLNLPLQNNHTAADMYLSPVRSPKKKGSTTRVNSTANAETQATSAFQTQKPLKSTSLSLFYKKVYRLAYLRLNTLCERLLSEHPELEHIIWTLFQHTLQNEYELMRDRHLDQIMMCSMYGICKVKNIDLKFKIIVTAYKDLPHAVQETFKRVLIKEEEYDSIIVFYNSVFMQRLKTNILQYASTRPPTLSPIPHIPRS

Assay [5] addresses T5, Rb^P V754G (human, UniProt P06400 380-788, V754G).
T5 construct: also called variant 73
T5 sequence (looked up): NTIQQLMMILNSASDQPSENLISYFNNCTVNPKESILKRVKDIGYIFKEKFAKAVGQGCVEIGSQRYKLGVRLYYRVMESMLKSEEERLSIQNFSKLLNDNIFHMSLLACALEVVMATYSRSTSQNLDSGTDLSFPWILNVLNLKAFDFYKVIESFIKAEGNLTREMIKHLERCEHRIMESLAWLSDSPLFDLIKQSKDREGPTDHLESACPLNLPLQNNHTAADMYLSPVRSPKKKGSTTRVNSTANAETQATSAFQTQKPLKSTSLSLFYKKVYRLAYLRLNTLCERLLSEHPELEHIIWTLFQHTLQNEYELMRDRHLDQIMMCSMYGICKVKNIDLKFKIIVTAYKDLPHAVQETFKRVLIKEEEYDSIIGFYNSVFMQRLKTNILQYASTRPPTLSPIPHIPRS

No end group written: not given here. TMR = tetramethyl rhodamine dye

B1: TMR-E2F1^TD, peptide of the E2F1 transactivation domain (peptide)
peptide: {TMR}-GEGIRDLFDCDFGDLTPLD
notes: also called E2F^TD; source: synthetic peptide, bought: GenScript
Consider B1, for which the Kd is 40 nM in assay [1]; 51 nM in assay [2]; 21 nM in assay [3]; 51 nM in assay [4]; 34 nM in assay [5].

B2: TMR-E7^LxCxE, LxCxE peptide of the E7 oncoprotein from HPV (peptide)
peptide: DLYCYEQLN
modifications: also: TMR label, position not given here
notes: source: synthetic peptide, bought: GenScript
In the case of B2, the Kd stood at 29 nM in assay [1]; 16 nM in assay [2]; 13 nM in assay [3]; 16 nM in assay [4]; 15 nM in assay [5].

These data come from paper PMC11931385, “Structural and functional analysis of cancer-associated missense variants in the retinoblastoma protein pocket domain” (The Journal of Biological Chemistry, 2025).
